In patent US20250144178A1, “PHARMACEUTICAL COMPOSITION FOR CANCER TREATMENT COMPRISING FUSION PROTEIN INCLUDING IL-12 AND ANTI-FAP ANTIBODY AND ANTICANCER AGENT” (KANAPH THERAPEUTICS INC., priority 2022, published 2025):

Assays:
recombinant mouse FAP = biological target: T1, recombinant mouse FAP (Mus musculus, UniProt P97321); assay: Surface plasmon resonance binding to recombinant mouse FAP; settings: SPR, 2 μg/ml protein, FIGS. 13 and 14
T1 sequence (P97321 1-761): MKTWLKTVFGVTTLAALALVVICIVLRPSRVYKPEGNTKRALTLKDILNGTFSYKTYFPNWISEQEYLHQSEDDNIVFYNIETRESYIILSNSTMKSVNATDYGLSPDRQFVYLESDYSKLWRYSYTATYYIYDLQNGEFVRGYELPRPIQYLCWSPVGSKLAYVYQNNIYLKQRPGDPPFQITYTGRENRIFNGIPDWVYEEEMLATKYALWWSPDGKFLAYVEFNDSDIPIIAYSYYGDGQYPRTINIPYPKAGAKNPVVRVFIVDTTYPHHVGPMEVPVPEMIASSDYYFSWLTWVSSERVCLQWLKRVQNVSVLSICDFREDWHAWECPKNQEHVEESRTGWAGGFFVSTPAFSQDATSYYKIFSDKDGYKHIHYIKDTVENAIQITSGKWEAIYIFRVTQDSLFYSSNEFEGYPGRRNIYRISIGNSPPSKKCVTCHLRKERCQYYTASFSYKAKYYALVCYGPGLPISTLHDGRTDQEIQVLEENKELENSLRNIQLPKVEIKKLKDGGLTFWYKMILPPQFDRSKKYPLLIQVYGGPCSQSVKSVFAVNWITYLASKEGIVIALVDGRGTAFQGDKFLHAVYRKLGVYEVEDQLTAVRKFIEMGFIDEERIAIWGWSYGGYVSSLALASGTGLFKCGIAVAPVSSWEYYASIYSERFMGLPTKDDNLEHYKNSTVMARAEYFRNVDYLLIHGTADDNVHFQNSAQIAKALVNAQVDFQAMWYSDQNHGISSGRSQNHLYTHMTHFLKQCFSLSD
Description: The surface of the CM5 chip was activated with a 1:1 mixture of […] (N-hydroxysuccinimide) and […] (1-Ethyl-3-(3-dimethylaminopropyl) carbodiimide), and 25 μg/ml of anti-mouse IgG (Fc) antibody was immobilized for 400 seconds at a rate of 10 μl/min. The remaining active ester groups were blocked with 1 M ethanolamine. T1.01m, T1.02m and T1.03m were diluted to 2 μg/ml and reacted on the CM5 chip immobilized with the anti-mouse IgG (Fc) antibody. The recombinant mouse FAP was diluted to 200 nM in 1×HBS-EP+buffer solution and diluted by serial dilution. The diluted recombinant mouse FAP was reacted at a rate of 30 μl/min. The association and dissociation times were 180 seconds and 400 seconds, respectively. After the dissociation, stabilization was performed for 60 seconds, and then a regeneration was performed for 30 seconds with a 10 mM glycine pH 1.5 solution at a rate of 30 μl/min.

[1] = tested on: CT26 colorectal cancer with mouse FAP overexpressing NIH-3T3 cells; assay: Tumor growth inhibition, CT26 co-injected with mouse FAP overexpressing NIH-3T3; format: in vivo, BALB/c mice
Description: Specifically, the mouse FAP overexpressing NIH-3T3 cells and the CT26 cells in culture were resuspended in Hanks' Balanced salt solution (HBSS, Gibco) at a concentration of 1×10^6 cells/50 μl, respectively, and the cells were mixed in a 1:1 ratio, and then 100 μl per each mouse was transplanted into the subcutaneous region of the right flank of 6-week-old BALB/c mice using a 1 cc syringe (25G) to obtain an FAP-expressing fibroblast co-injection animal model. The tumor size was measured using a digital vernier caliper by measuring the short axis and long axis of the tumor, and the tumor size was measured twice a week using the calculation formula of (short axis, mm) 2×(long axis, mm)×0.5.
Next, for drug efficacy evaluation, when the size of the tumor reached 100 mm^3, the mice were randomly divided into groups. Each experimental group consisted of 10 animals, and as a control, each 100 μl of 50 μg of T1.24m was intraperitoneally administered three times at an interval of 3 days. In the test group, each 100 μl of 10 μg and 50 μg of T1.02m and 50 μg of T1.01m, respectively, were intraperitoneally administered three times at an interval of 3 days to evaluate the tumor growth inhibitory ability.

[2] = tested on: FAP-overexpressing CT26 cells; assay: Tumor growth inhibition, FAP-overexpressing CT26 model, repeated i.p. dosing; format: in vivo, BALB/c mice; settings: 18 days after administration, control 50 μg T1.24m
Description: In order to prepare an mouse FAP-expressing tumor animal model, FAP overexpression was induced in CT26, a mouse colorectal cancer cell line. Specifically, the FAP-overexpressing CT26 cells in culture were resuspended in Hanks' Balanced salt solution (HBSS, Gibco), and then each 100 μl of 1×10^6 tumor cells per each mouse was transplanted into the subcutaneous region of the left dorsal side of 6-week-old BALB/c mice using a 1 cc syringe (25G) to obtain a mouse FAP-expressing colorectal cancer animal model. The tumor size was measured using a digital vernier caliper by measuring the short axis and long axis of the tumor, and the tumor size was measured twice a week using the calculation formula of (short axis, mm) 2×(long axis, mm)×0.5.
Next, for drug efficacy evaluation, when the size of the tumor reached 100 mm^3, the mice were randomly divided into groups. Each experimental group consisted of 8 animals, and as a control, each 100 μl of 50 μg of T1.24m was intraperitoneally administered four times at an interval of 3 days. In the test group, each 100 μl of 10 μg and 100 μg of T1.01m, and 2 μg, 10 μg and 100 μg of T1.02m, respectively, were intraperitoneally administered four times at an interval of 3 days to evaluate the tumor growth inhibitory ability.

[3] = tested on: FAP-overexpressing mouse colorectal cancer CT26; assay: Tumor growth inhibition by IL-12 mutation, FAP-overexpressing CT26, single i.v. dose; format: in vivo, BALB/c mice; settings: 10 μg i.v. once, 15 days after administration, control PBS, FIG. 28
Description: In order to evaluate the change in IL-12 activity according to the presence and extent of amino acid mutation, FAP-overexpressing mouse colorectal cancer CT26 was prepared by resuspending in PBS at a concentration of 5×10^5 cells/100 μl, and the tumor growth inhibitory ability was evaluated in a tumor animal model prepared by transplantation of the cells into 5-week-old female BALB/c mice.
Specifically, when the size of the tumor in the model reached 100 mm^3, the mice were randomly divided into groups. 100 μl of phosphate buffered saline (PBS) was administered once via tail vein injection of the control, and each of T1.01m, T1.02m and T1.03m was intravenously administered once at a dose of 10 μg.

B1: T1.01m: K&H bispecific: anti-mu FAP/mu IL-12, mu IgG2a DANG (seq18, seq19, seq20) (antibody)
heavy: QVQLQQSGAELARPGASVNLSCKASGYTFTNNGINWLKQRTGQGLEWIGEIYPRSTNTLYNEKFKGKATLTADRSSNTAYMELRSLTSEDSAVYFCARTLTAPFAFWGQGTLVTVSAAKTTAPSVYPLAPVCGDTTGSSVTLGCLVKGYFPEPVTLTWNSGSLSSGVHTFPAVLQSDLYTLSSSVTVTSSTWPSQSITCNVAHPASSTKVDKKIEPRGPTIKPCPPCKCPAPNLLGGPSVFIFPPKIKDVLMISLSPIVTCVVVAVSEDDPDVQISWFVNNVEVHTAQTQTHREDYGSTLRVVSALPIQHQDWMSGKEFKCKVNNKDLPAPIERTISKPKGSVRAPQVYVLPPPEEEMTKKQVTLWCMVTDFMPEDIYVEWTNNGKTELNYKNTEPVLDSDGSYFMYSKLRVEKKNWVERNSYSCSVVHEGLHNHHTTKSFSRTPGK
light: QIVLTQSPAIMSASPGEKVTMTCSASSGVNFMHWYQQKSGTSPKRWIFDTSKLASGVPARFSGSGSGTSYSLTISSMEAEDAATYYCQQWSFNPPTFGGGTKLEIKRADAAPTVSIFPPSSEQLTSGGASVVCFLNNFYPKDINVKWKIDGSERQNGVLNSWTDQDSKDSTYSMSSTLTLTKDEYERHNSYTCEATHKTSTSPIVKSFNRNEC
chain: MWELEKDVYVVEVDWTPDAPGETVNLTCDTPEEDDITWTSDQRHGVIGSGKTLTITVKEFLDAGQYTCHKGGETLSHSHLLLHKKENGIWSTEILKNFKNKTFLKCEAPNYSGRFTCSWLVQRNMDLKFNIKSSSSSPDSRAVTCGMASLSAEKVTLDQRDYEKYSVSCQEDVTCPTAEETLPIELALEARQQNKYENYSTSFFIRDIIKPDPPKNLQMKPLKNSQVEVSWEYPDSWSTPHSYFSLKFFVRIQRKKEKMKETEEGCNQKGAFLVEKTSTEVQCKGGNVCVQAQDRYYNSSCSKWACVPCRVRSGGGGSGGGGSGGGGSRVIPVSGPARCLSQSRNLLKTTDDMVKTAREKLKHYSCTAEDIDHEDITRDQTSTLKTCLPLELHKNESCLATRETSSTTRGSCLPPQKTSLMMTLCLGSIYEDLKMYQTEFQAINAALQNHNHQQIILDKGMLVAIDELMQSLNHNGETLRQKPPVGEADPYRVKMKLCILLHAFSTRVVTINRVMGYLSSAGGGGSGGGGSEPRGPTIKPCPPCKCPAPNLLGGPSVFIFPPKIKDVLMISLSPIVTCVVVAVSEDDPDVQISWFVNNVEVHTAQTQTHREDYGSTLRVVSALPIQHQDWMSGKEFKCKVNNKDLPAPIERTISKPKGSVRAPQVYVLPPPEEEMTKKQVTLSCAVTDFMPEDIYVEWTNNGKTELNYKNTEPVLDSDGSYFMVSKLRVEKKNWVERNSYSCSVVHEGLHNHHTTKSFSRTPGK
Recombinant mouse FAP
  Binding to recombinant mouse FAP: may bind to recombinant mouse FAP to specifically target FAP
[1]; 50 μg i.p. three times at an interval of 3 days, 14th day, control 50 μg T1.24m
  tumor growth inhibitory ability compared to control: 91.9%
[1]; 24th day after administration, FIG. 24
  complete response: subjects in complete response were observed
[2]; 10 μg i.p. four times at an interval of 3 days
  tumor growth inhibitory ability compared to control: 84.9%
[2]; 100 μg i.p. four times at an interval of 3 days
  tumor growth inhibitory ability compared to control: 85.6%
[3]
  tumor growth inhibitory ability compared to the control: excellent tumor growth inhibitory ability
